Columns and labels:
[1] = target: RepA, putative replicase of megaplasmid pMP7017 (Bifidobacterium breve JCM7017 (megaplasmid pMP7017)); assay: SEC-MALS
[2] = target: RepB, replication initiator of megaplasmid pMP7017 (Bifidobacterium breve JCM7017 (megaplasmid pMP7017)); assay: SEC-MALS

Substance | percent of total protein in the dimer peak [1] | percent of total protein in the presumed octamer peak [1] | percent of total protein in the presumed tetramer peak [1] | percent of total sample in the dimer peak [2] | stoichiometry N [2]
RepA, putative replicase of megaplasmid pMP7017 (natural protein) | 67.3% | 15.7% | 17% | – | –
RepB, replication initiator of megaplasmid pMP7017 (natural protein) | – | – | – | 97% | 2

Reference: publication PMC8313286
